Experiments:
[1] = Phase 1 trial: pharmacokinetics of surufatinib and toripalimab (non-compartmental analysis); format: in vivo, human
Excerpt: Blood samples were collected for PK evaluation at multiple time points on Cycle 1 Day 1, Cycle 2 Day 1, and Cycle 3 Day 1 for surufatinib and toripalimab, respectively.
DLT events were based on the DLT evaluable population, including patients who received at least 1 cycle of treatment and completed all safety assessments within the DLT assessment window or discontinued early due to DLT in the dose-escalation stage. All safety analyses, progression-free survival (PFS), and overall survival (OS) statistics were based on the safety population, including patients who received at least 1 dose of any study drug. All efficacy endpoints, excluding PFS and OS, were analyzed based on the efficacy evaluable population, including all patients who received at least 1 dose of any study drug and had tumor assessment at baseline and post drug administration prior to initiation of new anti-cancer therapies. The PK analysis was based on the PK population, which included all patients who received at least one dose of the study drug, had at least one PK sample collected and analyzed, and had no protocol deviation that might affect the PK data.
Two-sided 95% confidence interval (CI) of ORR and DCR were computed using the Exact (Clopper–Pearson) method. For time-to-event variables [PFS, OS, DoR (duration of response) and TTR (time to response)], median event time as well as the corresponding 95% CI were estimated using Kaplan–Meier method. All statistical analyses were performed using SAS 9.4 software. Adverse events (AEs) were graded by NCI CTCAE (Common Terminology Criteria for Adverse Events) v4.03, and coded using the Medical Dictionary for Regulatory Activities (MedDRA) v23.1. Treatment-related AEs (TRAEs) referred to AEs related to surufatinib or toripalimab, which were judged by the investigators. PK parameters were calculated by non-compartmental analysis using Phoenix WinNonlin v8.0.

[2] = system: NEN patients (Ki-67 ≥ 10%); parameters: method as in Lu et al. [2020]; conditions: NEN patients (Ki-67 ≥ 10%) after failure of first line therapy; ref Lu et al. [2020]; cited from earlier work
[3] = surufatinib 200 mg + toripalimab 240 mg, C1D1, N 6
[4] = surufatinib 200 mg + toripalimab 240 mg, C2D1, N 4
[5] = surufatinib 200 mg + toripalimab 240 mg, C3D1, N 3
[6] = surufatinib 250 mg + toripalimab 240 mg, C1D1, N 12
[7] = surufatinib 250 mg + toripalimab 240 mg, C2D1, N 11
[8] = surufatinib 250 mg + toripalimab 240 mg, C3D1, N 10
[9] = surufatinib 300 mg + toripalimab 240 mg, C1D1, N 12
[10] = surufatinib 300 mg + toripalimab 240 mg, C2D1, N 10
[11] = surufatinib 300 mg + toripalimab 240 mg, C3D1, N 9

Q: Which “Toripalimab accumulation ratio of AUC0-τ” value ([1]; Cycle 2 Day 1 compared to Cycle 1 Day 1, 240 mg Q3W) does the source give for toripalimab here?
A: 1.3–1.5

Q: And the “Toripalimab exposure (AUC0-τ) across surufatinib dose levels” value ([1]; concomitant administration with surufatinib at different dose levels)?
A: similar

Q: What about the “Toripalimab AUC0-τ, geometric mean (CV%)” value [1, 3] of the same substance?
A: 15925 (22.8) h×µg/mL

Q: And the “Toripalimab CL, geometric mean (CV%)” value [1, 3]?
A: 11.1 (30.8) mL/h

Q: And the “Toripalimab Cmax, geometric mean (CV%)” value [1, 3]?
A: 78.1 (15.2) µg/mL

Q: What about the “Toripalimab Tmax, median” value [1, 3] of the same substance?
A: 1.96 h

Q: And the “Toripalimab t1/2, median” value [1, 3]?
A: 231 h

Q: And the “Toripalimab AUC0-τ, geometric mean (CV%)” value [1, 4]?
A: 21512 (26.4) h×µg/mL

Q: And the “Toripalimab CL, geometric mean (CV%)” value [1, 4]?
A: 11.2 (24.3) mL/h

Q: What about the “Toripalimab Cmax, geometric mean (CV%)” value [1, 4] of the same substance?
A: 96.2 (17.9) µg/mL

Q: What about the “Toripalimab Tmax, median” value [1, 4] of the same substance?
A: 2.63 h

Q: What about the “Toripalimab t1/2, median” value [1, 4] of the same substance?
A: 320 h

Q: And the “Toripalimab AUC0-τ, geometric mean (CV%)” value [1, 5]?
A: 24626 (34.9) h×µg/mL

Q: What about the “Toripalimab CL, geometric mean (CV%)” value [1, 5] of the same substance?
A: 9.75 (29.6) mL/h

Q: What about the “Toripalimab Cmax, geometric mean (CV%)” value [1, 5] of the same substance?
A: 110 (29.0) µg/mL

Q: And the “Toripalimab Tmax, median” value [1, 5]?
A: 1.45 h

Q: What about the “Toripalimab t1/2, median” value [1, 5] of the same substance?
A: 390 h

Q: What about the “Toripalimab AUC0-τ, geometric mean (CV%)” value [1, 6] of the same substance?
A: 14142 (25.6) h×µg/mL

Q: What about the “Toripalimab CL, geometric mean (CV%)” value [1, 6] of the same substance?
A: 13.0 (32.9) mL/h

Q: And the “Toripalimab Cmax, geometric mean (CV%)” value [1, 6]?
A: 71.4 (21.6) µg/mL

Q: What about the “Toripalimab Tmax, median” value [1, 6] of the same substance?
A: 1.85 h

Q: And the “Toripalimab t1/2, median” value [1, 6]?
A: 237 h

Q: And the “Toripalimab AUC0-τ, geometric mean (CV%)” value [1, 7]?
A: 17176 (31.5) h×µg/mL

Q: And the “Toripalimab CL, geometric mean (CV%)” value [1, 7]?
A: 14.0 (37.2) mL/h

Q: And the “Toripalimab Cmax, geometric mean (CV%)” value [1, 7]?
A: 83.8 (24.5) µg/mL

Q: What about the “Toripalimab Tmax, median” value [1, 7] of the same substance?
A: 1.13 h

Q: What about the “Toripalimab t1/2, median” value [1, 7] of the same substance?
A: 259 h

Q: What about the “Toripalimab AUC0-τ, geometric mean (CV%)” value [1, 8] of the same substance?
A: 20157 (39.5) h×µg/mL

Q: What about the “Toripalimab CL, geometric mean (CV%)” value [1, 8] of the same substance?
A: 11.9 (52.0) mL/h

Q: What about the “Toripalimab Cmax, geometric mean (CV%)” value [1, 8] of the same substance?
A: 97.4 (25.0) µg/mL

Q: And the “Toripalimab Tmax, median” value [1, 8]?
A: 1.87 h

Q: What about the “Toripalimab t1/2, median” value [1, 8] of the same substance?
A: 246 h

Q: What about the “Toripalimab AUC0-τ, geometric mean (CV%)” value [1, 9] of the same substance?
A: 16458 (25.0) h×µg/mL

Q: And the “Toripalimab CL, geometric mean (CV%)” value [1, 9]?
A: 11.0 (22.1) mL/h

Q: What about the “Toripalimab Cmax, geometric mean (CV%)” value [1, 9] of the same substance?
A: 81.2 (24.5) µg/mL

Q: And the “Toripalimab Tmax, median” value [1, 9]?
A: 1.12 h

Q: What about the “Toripalimab t1/2, median” value [1, 9] of the same substance?
A: 234 h

Q: What about the “Toripalimab AUC0-τ, geometric mean (CV%)” value [1, 10] of the same substance?
A: 20660 (33.7) h×µg/mL

Q: And the “Toripalimab CL, geometric mean (CV%)” value [1, 10]?
A: 11.6 (27.6) mL/h

Q: What about the “Toripalimab Cmax, geometric mean (CV%)” value [1, 10] of the same substance?
A: 98.1 (27.5) µg/mL

Q: What about the “Toripalimab Tmax, median” value [1, 10] of the same substance?
A: 1.26 h

Q: What about the “Toripalimab t1/2, median” value [1, 10] of the same substance?
A: 246 h

Q: What about the “Toripalimab AUC0-τ, geometric mean (CV%)” value [1, 11] of the same substance?
A: 20063 (46.6) h×µg/mL

Q: What about the “Toripalimab CL, geometric mean (CV%)” value [1, 11] of the same substance?
A: 12.0 (35.8) mL/h

Q: What about the “Toripalimab Cmax, geometric mean (CV%)” value [1, 11] of the same substance?
A: 103 (33.2) µg/mL

Q: And the “Toripalimab Tmax, median” value [1, 11]?
A: 1.17 h

Q: And the “Toripalimab t1/2, median” value [1, 11]?
A: 241 h

Q: And the DCR [2]?
A: 35%

Q: What about the ORR [2] of the same substance?
A: 20%

— article PMC9931771, “Surufatinib plus toripalimab in patients with advanced solid tumors: a single-arm, open-label, phase 1 trial” (Journal of Cancer Research and Clinical Oncology, 2022)
